The values below come from publication PMC10673654, “MdAIL5 overexpression promotes apple adventitious shoot regeneration by regulating hormone signaling and activating the expression of shoot development-related genes”.

This data set concerns the target T1, MdAIL5 (Malus domestica (apple)?, UniProt A0A678R5P4 1-555).
T1 sequence: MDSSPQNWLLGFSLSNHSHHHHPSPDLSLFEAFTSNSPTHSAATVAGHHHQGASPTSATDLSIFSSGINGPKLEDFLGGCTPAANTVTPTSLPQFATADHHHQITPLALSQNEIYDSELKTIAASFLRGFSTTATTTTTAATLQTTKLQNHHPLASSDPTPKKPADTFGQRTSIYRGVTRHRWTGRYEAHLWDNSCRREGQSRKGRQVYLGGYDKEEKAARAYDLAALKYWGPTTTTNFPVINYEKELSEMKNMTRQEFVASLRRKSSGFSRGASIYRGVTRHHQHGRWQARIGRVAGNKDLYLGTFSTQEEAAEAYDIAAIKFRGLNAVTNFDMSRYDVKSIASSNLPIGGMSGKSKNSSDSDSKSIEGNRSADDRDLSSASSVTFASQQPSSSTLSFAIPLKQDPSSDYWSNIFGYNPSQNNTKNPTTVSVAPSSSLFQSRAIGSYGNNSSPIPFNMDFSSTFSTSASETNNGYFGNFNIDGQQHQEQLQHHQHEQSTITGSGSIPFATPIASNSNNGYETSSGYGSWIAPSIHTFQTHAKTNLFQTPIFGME
Description: EMSA; LightShift Chemiluminescent EMSA Kit per manufacturer; buffer, salt, pH and temperature not stated. The note with it: protein: recombinant; tags: GST (N-terminal, pGEX-4T-1); cold version unlabeled; blunt.

B1: Probe with CACAATTGCCTATG (Table S1: MdARF9pro; text and Fig. 6e: MdHB14 promoter) (dsDNA)
DNA 1: TGGGCTATTACATCCCACAATTGCCTATGAGTGGCCAATTTTTCCT
DNA 2: AGGAAAAATTGGCCACTCATAGGCAATTGTGGGATGTAATAGCCCA
For B1, the binding result was “binds”.

B2: Probe with CACGCATCCCGAAG (Table S1: MdHB14pro; text and Fig. 6d: MdARF9 promoter) (dsDNA)
DNA 1: CGTTACACCAAACCACACGCATCCCGAAGCGCCGTTCACGTCAA
DNA 2: TTGACGTGAACGGCGCTTCGGGATGCGTGTGGTTTGGTGTAACG
Take B2: the binding result is on record as “binds”.
